Test results reported in publication PMC10673952, “Stochastic chain termination in bacterial pilus assembly” (Nature Communications, 2023).
Values belong to the binder of their own block, whether it stands above or below them.

B2: FimA (natural protein, E. coli, UniProt P04128 24-182, looked up)
chain: AATTVNGGTVHFKGEVVNAACAVDAGSVDQTVQLGQVRTASLAQEGATSSAVGFNIQLNDCDTNVASKAAVAFLGTAIDAGHTNVLALQSSAAGSATNVGVQILDRTGAALTLDGATFSSETTLNNGTNTIPFQARYFATGAATPGAANADATFKVQYQ
notes: also called main structural pilus subunit FimA; FimA wild-type
B3: FimC (natural protein, E. coli, UniProt P31697 37-241, looked up)
chain: GVALGATRVIYPAGQKQEQLAVTNNDENSTYLIQSWVENADGVKDGRFIVTPPLFAMKGKKENTLRILDATNNQLPQDRESLFWMNVKAIPSMDKSKLTENTLQLAIISRIKLYYRPAKLALPPDQAAEKLRFRRSANSLTLINPTPYYLTVTELNAGTRVLENALVPPMGESTVKLPSDAGSNITYRTINDYGALTPKMTGVME
notes: also called periplasmic chaperone FimC; untagged FimC; source: in FimCF and FimCG co-expressed in the periplasm of E. coli HM125
B4: FimCHis (FimC with C-terminal hexahistidine tag) (natural protein, E. coli, UniProt P31697 37-241, looked up)
chain: GVALGATRVIYPAGQKQEQLAVTNNDENSTYLIQSWVENADGVKDGRFIVTPPLFAMKGKKENTLRILDATNNQLPQDRESLFWMNVKAIPSMDKSKLTENTLQLAIISRIKLYYRPAKLALPPDQAAEKLRFRRSANSLTLINPTPYYLTVTELNAGTRVLENALVPPMGESTVKLPSDAGSNITYRTINDYGALTPKMTGVME
B5: FimI (natural protein, E. coli W3110, UniProt P39264 20-179, looked up)
chain: GNKWNTTLPGGNMQFQGVIIAETCRIEAGDKQMTVNMGQISSNRFHAVGEDSAPVPFVIHLRECSTVVSERVGVAFHGVADGKNPDVLSVGEGPGIATNIGVALFDDEGNLVPINRPPANWKRLYSGSTSLHFIAKYRATGRRVTGGIANAQAWFSLTYQ
notes: also called assembly terminator subunit FimI

Experiments:
FimC = target: B3; assay: refolding of the subunit with the chaperone and co-purification (cation exchange chromatography, SEC); denatured, disulfide-intact subunit diluted into buffer with an excess of FimC or FimCHis; complex purified by cation exchange and (not for FimCHisI) Superdex 75; FimCA eluted as a 1:1 complex; identity by ESI-MS; settings: both partners purified
FimA [1] = target: B2; assay: reconstitution by donor strand exchange and co-purification (cation exchange chromatography, SEC); 2 μM FimCA with 10 μM FimCAt at pH 7.0 and 37 °C overnight; FimCAA purified on Resource S and Superdex 75; identity by ESI-MS; settings: both partners purified
FimA [2] = target: B2; assay: cell-based or functional assay
FimI [3] = target: B5; assay: cell-based or functional assay
FimA [4] = target: B2; assay: chaperone exchange kinetics followed by analytical cation exchange chromatography; 4 μM complex incubated with a 9-fold molar excess (36 μM) of the differently tagged FimC (untagged FimC against FimCHis complexes, FimCHis against FimCA and FimCAA); 20 mM MES-NaOH pH 6.0, 37 °C; single-exponential fit; settings: both partners purified
[5] = target: T1, FimF-FimGt (the two subunits of the ternary FimCHisFG complex) (E. coli, UniProt P08189 21-176; P08190 24-167); assay: as above; settings: both partners purified
T1 chain 1: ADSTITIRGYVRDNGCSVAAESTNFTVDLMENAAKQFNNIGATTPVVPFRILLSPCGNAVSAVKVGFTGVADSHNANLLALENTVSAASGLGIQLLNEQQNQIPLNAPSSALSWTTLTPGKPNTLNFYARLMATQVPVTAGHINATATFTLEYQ
T1 chain 2: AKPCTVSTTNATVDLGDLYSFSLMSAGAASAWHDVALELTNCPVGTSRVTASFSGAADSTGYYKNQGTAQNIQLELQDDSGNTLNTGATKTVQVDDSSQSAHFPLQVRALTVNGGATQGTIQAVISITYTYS

[6] = target: T2, FimI-FimAtHis (the two subunits of the ternary FimCHisIA complex) (E. coli W3110 | E. coli, UniProt P39264 20-179; P04128 37-182); assay: as above; settings: both partners purified
T2 construct: also called FimI-FimA part of FimCHisIA
T2 sequence (looked up) 1: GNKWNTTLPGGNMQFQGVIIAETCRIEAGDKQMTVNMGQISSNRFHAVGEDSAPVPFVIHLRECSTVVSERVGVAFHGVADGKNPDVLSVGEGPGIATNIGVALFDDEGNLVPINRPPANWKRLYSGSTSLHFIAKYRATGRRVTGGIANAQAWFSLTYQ
T2 sequence (looked up) 2: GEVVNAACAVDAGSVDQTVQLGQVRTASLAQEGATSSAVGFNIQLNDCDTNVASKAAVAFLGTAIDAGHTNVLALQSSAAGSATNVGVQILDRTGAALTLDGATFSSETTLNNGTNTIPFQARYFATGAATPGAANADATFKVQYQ

FimI [7] = target: B5; assay: as above; settings: both partners purified
FimFt = target: T3, FimFt (E. coli); assay: as above; settings: both partners purified
T3 chain: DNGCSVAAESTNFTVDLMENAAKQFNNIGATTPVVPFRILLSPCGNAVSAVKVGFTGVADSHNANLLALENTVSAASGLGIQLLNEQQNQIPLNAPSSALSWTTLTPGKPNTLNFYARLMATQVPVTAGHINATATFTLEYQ

[8] = target: B4; assay: crystal structure; settings: both partners purified
[9] = target: B4; assay: crystal structure; FimCHis-FimI-FimAtHis complex, 2.8 Å, space group P6(1), two complexes in the asymmetric unit, crystals at 293 K from 0.8 M sodium formate, 100 mM Tris/acetic acid pH 8.5, 16% PEG 4000; settings: both partners purified
FimI [10] = target: B5; assay: crystal structure; settings: both partners purified

binding result (FimC): binds | binding result (FimA [1]): binds
B1: FimAt (residues 18-159 of FimA) (domain or fragment, E. coli, UniProt P04128 41-182, looked up)
chain: NAACAVDAGSVDQTVQLGQVRTASLAQEGATSSAVGFNIQLNDCDTNVASKAAVAFLGTAIDAGHTNVLALQSSAAGSATNVGVQILDRTGAALTLDGATFSSETTLNNGTNTIPFQARYFATGAATPGAANADATFKVQYQ

Binder: B2
binding result (FimC): binds

Binder: B3
FimC-catalyzed folding of oxidized, unfolded FimA, rate constant by stopped-flow tryptophan fluorescence (pseudo-first-order fit, pH 8.0) (FimA [2]): 43000 M^−1 s^−1 | FimC-catalyzed folding of oxidized, unfolded FimI, rate constant by stopped-flow tryptophan fluorescence (pseudo-first-order fit, pH 8.0) (FimI [3]): 73000 M^−1 s^−1 | dissociation half-life (FimA [4]): 26 ± 1 s

Binder: B4
dissociation half-life [5]: 1.41 ± 0.12 h | dissociation half-life [6]: 3.85 ± 0.43 h | dissociation half-life (FimI [7]): 1.05 ± 0.095 min | dissociation half-life (FimFt): 1.58 ± 0.14 h

Binder: B5
binding result [8]: binds | binding result (FimC): binds

binding result [9]: binds | binding result (FimI [10]): binds
B6: FimAtHis (wild-type FimA missing residues 1-13 but with an N-terminal hexahistidine tag) (domain or fragment, E. coli, UniProt P04128 37-182, looked up)
chain: GEVVNAACAVDAGSVDQTVQLGQVRTASLAQEGATSSAVGFNIQLNDCDTNVASKAAVAFLGTAIDAGHTNVLALQSSAAGSATNVGVQILDRTGAALTLDGATFSSETTLNNGTNTIPFQARYFATGAATPGAANADATFKVQYQ
notes: also called FimAt (in the FimCHisIA structure)
